Test results from patent publication US20170137509A1 (AFFIRIS, published 2017).

Experiments:
full length Opn (flOpn) = target: T1, full length Opn (flOpn) (human, UniProt P10451 17-314); test: ELISA on plates coated with recombinant human Opn, HRP anti-mouse IgG, OD 405 nm
T1 construct: Recombinant, expressed in HEK293 c18 cells as 'Strep-314 AA (full length Opn)-6xHis'; ELISA and Western blot also used PeproTech Cat#120-35 as control, and Western lanes 1-4 hold full length Opn proteins with different tag systems; also called Strep-314 AA (full length Opn)-6xHis; full length osteopontin; not shown: N-terminal OneStrep-tag
Description: (§1) ELISA plates (Nunc, Cat#439454) were coated with 1 μg/ml recombinant human Opn proteins (home-made or from PeproTech, Cat#120-35 as control) in 100 mM NaHCO3 pH=9,2 and blocked with 1% BSA in 1×PBS. Bound mouse anti-human monoclonal antibodies (BioGenes, 1 μg/ml) and the mouse serum used as positive control were detected using a HRP-conjugated goat anti-mouse IgG antibody ([…], Cat#115-035-068, 0.2 μg/ml). ABTS (0.68 mM ABTS in 0.1 M citric acid, pH=4.3) and 0.1% hydrogen peroxide was used as a substrate for the horse radish peroxidase (HRP). The substrate reaction was stopped by adding 1% SDS solution to the wells. The absorbance was read at 405 nm using a microplate reader (TECAN Sunrise).

[1] = target: T2, matrix-metalloproteinase-truncated Opn (MmpOpn) (human, UniProt P10451 17-166, limits assumed); test: as above
T2 construct: Recombinant, expressed in HEK293 c18 cells; stop codon after 166 AA; also called 1-Opn-166; 6xHis-166 AA (N-terminal MMP-cleaved Opn)
Description: as §1

[2] = target: T3, biotinylated peptide ligand representing ThrOpn (SPR); test: SPR (Biacore 2000), biotinylated peptide on streptavidin chip, mAb injected at 2 ug/ml
Description: (§2) Binding analyses were performed on a Biacore 2000. The different biotinylated peptide ligands representing the different Opn products were immobilized on a streptavidin chip in one flow cell respectively, with a flow rate of 30 μl/min. The fourth flow cell is a reference cell without peptide. The peptides were dissolved in a DMSO solution and further diluted in HBS buffer (0.01M Hepes, 0.1M NaCl, 0.004M EDTA, 0.05% P20, pH=7.4). After immobilization, the chips in each flow cell were saturated with 1 μM D-Biotin. As a control, an unspecific serum was injected through all cells. The flow rate of the antibodies was 30 μl/min at a concentration of 2 μg/ml, volume injected 100 μl. The dissociation time was set at 500 sec. The chips were regenerated with 60 μl of 50 mM HCl. Off-rate values and KD values were calculated using the Biocore SPR software.
(§3) In order to define the binding strength of selected mAbs against their individual targets SPR analysis was performed using peptides representing the different Opn products. […] Thus in a situation where multiple washing steps are included (e.g. in the used functional cell based adhesion assay) the antibody will be washed away from its target. […] In a more physiological situation where antibody persistence is not influenced by steps depleting the antibody, mAb 4-4-2 is expected also display functional activity.

[3] = target: T4, biotinylated peptide ligand representing MmpOpn (SPR); test: as above
Description: as §2, §3

[4] = target: T4, biotinylated peptide ligand …; test: SPR (Biacore 2000), biotinylated peptide on streptavidin chip, mAb injected at 2 ug/ml; one value printed for 'ThrOpn and MmpOpn'
[5] = target: T3, biotinylated peptide ligand …; test: as above

T1 sequence (P10451 other isoform, or with tags, fused parts or gaps): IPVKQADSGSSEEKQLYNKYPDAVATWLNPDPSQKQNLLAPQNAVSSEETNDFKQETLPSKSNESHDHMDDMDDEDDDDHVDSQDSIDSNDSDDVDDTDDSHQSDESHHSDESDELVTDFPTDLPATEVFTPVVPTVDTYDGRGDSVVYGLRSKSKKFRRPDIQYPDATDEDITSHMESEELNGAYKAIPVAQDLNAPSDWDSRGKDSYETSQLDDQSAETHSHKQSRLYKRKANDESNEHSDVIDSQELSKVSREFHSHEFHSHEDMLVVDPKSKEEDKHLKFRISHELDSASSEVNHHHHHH
T2 sequence (P10451 other isoform, or with tags, fused parts or gaps limits assumed): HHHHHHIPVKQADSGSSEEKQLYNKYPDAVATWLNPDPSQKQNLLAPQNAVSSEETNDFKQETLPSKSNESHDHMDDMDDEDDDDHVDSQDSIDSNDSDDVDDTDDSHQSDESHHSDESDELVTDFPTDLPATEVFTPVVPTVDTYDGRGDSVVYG

Row | Binder | binding result (full length Opn (flOpn)) | binding result [1] | Kd [2] [nM] | koff [2] [s⁻¹] | Kd [3] [nM] | koff [3] [s⁻¹] | Kd [4] [nM] | koff [4] [s⁻¹] | Kd [5] [nM] | koff [5] [s⁻¹]
1 | mAb 4-4-2 (antibody, V domains shown, also called Monoclonal Ab 4-4-2) VH: QVTLKESGPGILQPSQTLSLTCSFSGFSLSTYGLGVSWIRQPSGKGLEWLAHIYWDDNKRYKSSLKSRLTISKDTSSNQVFLKITSVDTADTATYYCARGTSPGVSFPYWGQGTLVTVSA VL: DIQMTQSPASLSASVGETVTITCRASENIYSYLAWYQQKQGKSPQFLVYNAKTLAEGVPSRFSGSGSGTQFSLKINSLQPEDFGSYYCQHHYGTPLTFGAGTKLELKR | no binding (tested: 1,00 µg/ml) | no binding (tested: 1,00 µg/ml) | 13.9 | 0.00279 |  |  |  |  |  | 
2 | mAb 7-5-4 (antibody, V domains shown, also called Monoclonal Ab 7-5-4) VH: EVQLVETGGGLVQPKGALRLSCAVSGITFNTNGMNWVRQAPGRGLEWVARVRSKDYNFATYYADSVKDRFTISRDDSQSMLYLQMNNLRTEDTAMYYCVRPDYYGSSFAYWGQGTLVSVSA VL: DVLMTQTPLSLPVSLGDQASISCRSSQSIVHSNGNTYLEWYLQKPGQSPKLLIYKVSNRFFGVPDRFSGSGSGTDFTLKISRVEAEDLGVYYCFQGSHVPWTFGGGTKLEIKR | no binding (tested: 1,00 µg/ml) |  |  |  | 1.12 | 8.89e-05 |  |  |  | 
3 | mAb 9-3-1 (antibody, IgG1, V domains shown, tested as a separate clone; also called mAb CMI 9-3) VH: EVQLVETGGGLVQPKGALRLSCAVSGITFNTNGMNWVRQAPGRGLEWVARVRSKDYNFATYYADSVKDRFTISRDDSQSMLYLQMNNLRTEDTAMYYCVRPDYYGSSFAYWGQGTLVSVSA VL: DVLMTQTPLSLPVSLGDQASISCRSSQSIVHSNGNTYLEWYLQKPGQSPKLLIYKVSNRFFGVPDRFSGSGSGTDFTLKISRVEAEDLGVYYCFQGSHVPWTFGGGTKLEIKR | no binding (tested: 1,00 µg/ml) |  |  |  | 0.97 | 8.79e-05 |  |  |  | 
4 | mAb 21-5-4 (antibody, V domains shown, also called 21-5-4 mAb; Monoclonal Ab 21-5-4) VH: QVTLKESGPGMLKPSQTLSLTCSFSGFSLSTSGLGIGWIRQPSGKGLEWLAHISWDDSKYYNPSLKNRLTISKDTSRNQVFLKITNVGTADSATYFCARSGGGDSDWGQGTLVTVSA VL: ANVLTQSPAIMSASPGEKVTMTCSANSSVNSIHWYQQKSSTSPKLWIYDTSKLASGVPGRFSGSGSGDSYSLTISSMEAEDVATYYCFQGSGYPLTFGGGTKLEIKR |  |  |  |  |  |  | 0.84 | 1e-05 | 0.84 | 1e-05
